The target in the assay is GST-LOV2GIV (L) (Avena sativa | not stated). Description: pull-down.

The record followed here is doi:10.1101/2020.08.17.253781.

Chain of His-Gαi3 (P08753 whole entry): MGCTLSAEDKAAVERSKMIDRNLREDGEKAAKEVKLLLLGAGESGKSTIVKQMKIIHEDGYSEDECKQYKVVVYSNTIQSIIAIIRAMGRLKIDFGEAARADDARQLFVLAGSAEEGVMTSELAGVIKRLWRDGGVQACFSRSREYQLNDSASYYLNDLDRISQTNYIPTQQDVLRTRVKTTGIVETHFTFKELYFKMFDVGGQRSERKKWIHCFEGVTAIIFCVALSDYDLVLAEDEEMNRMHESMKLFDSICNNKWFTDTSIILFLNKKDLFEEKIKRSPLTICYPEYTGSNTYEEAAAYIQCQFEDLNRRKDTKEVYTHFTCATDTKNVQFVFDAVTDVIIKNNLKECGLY

In turn, “His-Gαi3 (from UniProt P08753 1-354) (natural protein)” gave a fold binding, lit over dark conformation of LOV2GIV of 3 fold.
